# Columns and labels:
# [1] = target: rattus norvegicus Unc5D residues 32-307 (rUnc5D^IgIgTSP) (rattus norvegicus) (UniProt F1LW30); assay: crystal structure
# [2] = target: hGPC3^core(R355A/R358A) (human) (UniProt P51654); assay: native MS
# Chain of hGPC3^core(R355A/R358A) (human) (P51654 32-483 R355A/R358A): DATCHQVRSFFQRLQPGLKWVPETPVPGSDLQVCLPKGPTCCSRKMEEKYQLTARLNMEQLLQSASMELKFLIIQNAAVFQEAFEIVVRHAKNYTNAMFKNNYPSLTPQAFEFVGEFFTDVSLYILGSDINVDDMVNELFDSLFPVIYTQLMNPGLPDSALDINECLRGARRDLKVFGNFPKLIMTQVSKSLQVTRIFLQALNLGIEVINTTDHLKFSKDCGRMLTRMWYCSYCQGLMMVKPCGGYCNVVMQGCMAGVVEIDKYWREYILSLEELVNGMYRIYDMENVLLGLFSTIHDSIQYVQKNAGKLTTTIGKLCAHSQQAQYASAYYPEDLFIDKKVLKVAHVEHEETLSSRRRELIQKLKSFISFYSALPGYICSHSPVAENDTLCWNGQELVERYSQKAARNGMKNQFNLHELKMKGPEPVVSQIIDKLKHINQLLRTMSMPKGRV
substance,measurement,setting,value
rattus norvegicus Unc5D residues 32-307 (rUnc5D^IgIgTSP) (from UniProt F1LW30 32-307) (domain or fragment),stoichiometry N,[1],4
same,stoichiometry N (Unc5D per GPC3 (1:1)),[2],1
same,stoichiometry N (Unc5D per GPC3 (2:2)),[2],1
same,stoichiometry N (Unc5D per GPC3 (4:4)),[2],1
